Data taken from article PMC4273445 (eLife, 2014).

Tests used:
Experiment in all cases: SPR
[1] = target: fHbp V3.28 Val (at V1 Ile196) to Ala (N. meningitidis)
[2] = target: fHbp V3.28 His (at V1 His203) to Ala (N. meningitidis)
[3] = target: fHbp V2.21 Glu (at V1 Gly267) to Ala (N. meningitidis)
[4] = target: fHbp V1.1 Ser185 to Ala (N. meningitidis)
[5] = target: fHbp V2.21 Ile (at V1 Ser185) to Ala (N. meningitidis)
[6] = target: fHbp V2.21 Lys (at V1 Lys264) to Ala (N. meningitidis)
[7] = target: fHbp 2.P22 (N. meningitidis) (UniProt E6MV22)
[8] = target: fHbp 2.P16 (N. meningitidis) (UniProt E6MV22)
[9] = target: fHbp V2.21 Leu (at V1 Phe174) to Ala (N. meningitidis)
[10] = target: fHbp V3.28 Asp (at V1 Asp150) to Ala (N. meningitidis)
[11] = target: fHbp V2.21 Asp (at V1 Glu183) to Ala (N. meningitidis)
[12] = target: fHbp V3.28 Glu (at V1 Gly267) to Ala (N. meningitidis)
[13] = target: fHbp V1.1 Ile179 to Ala (N. meningitidis)
[14] = target: fHbp 3.P84 (N. meningitidis) (UniProt E6MV22)
[15] = target: fHbp V3.28 Val (at V1 Leu171) to Ala (N. meningitidis)
[16] = target: fHbp 1.P37 (N. meningitidis) (UniProt E6MV22)
[17] = target: fHbp V2.21 Arg (at V1 Arg106) to Ala (N. meningitidis)
[18] = target: fHbp V2.21 Lys (at V1 His184) to Ala (N. meningitidis)
[19] = target: fHbp V3.28 Asn (at V1 Asn108) to Ala (N. meningitidis)
[20] = target: fHbp V1.1 Lys264 to Ala (N. meningitidis)
[21] = target: fHbp V3.28 Gln (at V1 Lys191) to Ala (N. meningitidis)
[22] = target: fHbp V1.1 His248 to Ala (N. meningitidis)
[23] = target: fHbp V3.28 Ser (at V1 Ser302) to Ala (N. meningitidis)
[24] = target: fHbp V1.1 Glu157 to Ala (N. meningitidis)
[25] = target: fHbp V1.1 Lys191 to Ala (N. meningitidis)
[26] = target: fHbp V2.21 Lys (at V1 Lys268) to Ala (N. meningitidis)
[27] = target: fHbp V1.1 Ile154 to Ala (N. meningitidis)
[28] = target: fHbp V2.21 Arg (at V1 Arg145) to Ala (N. meningitidis)
[29] = target: fHbp V2.21 Ile (at V1 Ile147) to Ala (N. meningitidis)
[30] = target: fHbp V1.1 Asp266 to Ala (N. meningitidis)
[31] = target: fHbp V3.28 Leu (at V1 Ser274) to Ala (N. meningitidis)
[32] = target: fHbp 3.P47 (N. meningitidis) (UniProt E6MV22)
[33] = target: fHbp V1.1 Leu171 to Ala (N. meningitidis)
[34] = target: fHbp V3.28 Asp (at V1 Glu183) to Ala (N. meningitidis)
[35] = target: fHbp V3.28 Phe (at V1 Phe194) to Ala (N. meningitidis)
[36] = target: fHbp V3.28 Asp (at V1 Gln103) to Ala (N. meningitidis)
[37] = target: fHbp V2.21 Asp (at V1 Asp150) to Ala (N. meningitidis)
[38] = target: fHbp V2.21 Ser (at V1 Gln193) to Ala (N. meningitidis)
[39] = target: fHbp V3.28 Val (at V1 Ile311) to Ala (N. meningitidis)
[40] = target: fHbp V3.28 Gln (at V1 Arg145) to Ala (N. meningitidis)
[41] = target: fHbp 1.P292 (N. meningitidis) (UniProt E6MV22)
[42] = target: fHbp V2.21 Phe (at V1 Phe292) to Ala (N. meningitidis)
[43] = target: fHbp V2.21 Val (at V1 Leu171) to Ala (N. meningitidis)
[44] = target: fHbp V2.21 His (at V1 His203) to Ala (N. meningitidis)
[45] = target: factor H binding protein (fHbp) V1.1 (N. meningitidis) (UniProt Q9JXV4)
[46] = target: fHbp V3.28 Thr (at V1 Ser286) to Ala (N. meningitidis)
[47] = target: fHbp V2.21 Glu (at V1 His313) to Ala (N. meningitidis)

CFH67, CCP domains 6 and 7 of complement factor H, sequence (P08603 321-443): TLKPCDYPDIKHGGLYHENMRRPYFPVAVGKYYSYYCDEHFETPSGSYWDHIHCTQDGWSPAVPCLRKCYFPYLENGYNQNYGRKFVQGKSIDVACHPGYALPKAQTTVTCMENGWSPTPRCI

CFH67, CCP domains 6 and 7 of complement factor H (from UniProt P08603 321-443) (domain or fragment)
Kd [1]: 11.6 nM
Kd [2]: 2.33 nM
Kd [3]: 1.63 nM
Kd [4]: 3.09 nM
Kd [5]: 13.3 nM
Kd [6]: 16.7 nM
Kd [7]: 2.13 nM
Kd [8]: 3.46 nM
Kd [9]: 0.157 nM
Kd [10]: 4.4 nM
Kd [11]: 4.29 nM
Kd [12]: 1.45 nM
Kd [13]: 8.06 nM
Kd [14]: 2.64 nM
Kd [15]: 3.07 nM
Kd [16]: 1.11 nM
Kd [17]: 5.99 nM
Kd [18]: 3.15 nM
Kd [19]: 3.71 nM
Kd [20]: 12.3 nM
Kd [21]: 2.43 nM
Kd [22]: 3.36 nM
Kd [23]: 6.18 nM
Kd [24]: 20.7 nM
Kd [25]: 6.4 nM
Kd [26]: 3.28 nM
Kd [27]: 7.69 nM
Kd [28]: 0.408 nM
Kd [29]: 3.58 nM
Kd [30]: 3.34 nM
Kd [31]: 18.5 nM
Kd [32]: 0.514 nM
Kd [33]: 7.45 nM
Kd [34]: 5.96 nM
Kd [35]: 4.25 nM
Kd [36]: 2.7 nM
Kd [37]: 3.24 nM
Kd [38]: 3.95 nM
Kd [39]: 30.3 nM
Kd [40]: 0.621 nM
Kd [41]: 7.74 nM

CFHR3_(12), the first two (N-terminal) CCP domains of complement factor H-related 3 (from UniProt Q02985 19-330) (domain or fragment)
Kd [1]: 14.8 nM
Kd [2]: 3.47 nM
Kd [3]: 2.13 nM
Kd [4]: 78.5 nM
Kd [5]: 6.48 nM
Kd [6]: 30.2 nM
Kd [7]: 2.58 nM
Kd [8]: 3.74 nM
Kd [9]: 3.44 nM
Kd [10]: 3.77 nM
Kd [11]: 4.45 nM
Kd [42]: 19.4 nM
Kd [12]: 2.57 nM
Kd [13]: 1270 nM
Kd [14]: 6.08 nM
Kd [15]: 3.81 nM
Kd [16]: 7.52 nM
Kd [17]: 5.26 nM
Kd [18]: 3.13 nM
Kd [43]: 9.81 nM
Kd [19]: 3.21 nM
Kd [44]: 3.81 nM
Kd [45]: 59.4 nM
Kd [20]: 589 nM
Kd [21]: 3.05 nM
Kd [22]: 82.5 nM
Kd [23]: 7.64 nM
Kd [25]: 91 nM
Kd [26]: 3.25 nM
Kd [27]: 147 nM
Kd [28]: 2.88 nM
Kd [46]: 33.1 nM
Kd [29]: 8.22 nM
Kd [30]: 82.6 nM
Kd [31]: 20.3 nM
Kd [32]: 1.64 nM
Kd [33]: 724 nM
Kd [34]: 4.88 nM
Kd [35]: 5.15 nM
Kd [36]: 2.81 nM
Kd [37]: 3.64 nM
Kd [47]: 0.723 nM
Kd [38]: 3.38 nM
Kd [39]: 36.3 nM
Kd [40]: 0.434 nM
Kd [41]: 31.4 nM
